{"source": "paper PMC8301015", "about": "“Atypical Bacilliredoxin AbxC Plays a Role in Responding to Oxidative Stress in Radiation-Resistant Bacterium Deinococcus radiodurans” (Antioxidants, 2021)", "proteins": {"B1": {"name": "AbxC (atypical BrxC; DR_1832), C-terminal His x 6 tag (enzyme, Deinococcus radiodurans, UniProt Q9RTD3 1-211, looked up)", "chain": "MTQGQDQVLSPLTTPDEVDQFLKDYPLAAVFKAGTCHKTMQGFGVLETFLQRYELPVGFIRVVDWRPASNHVAELTGLTHHSPQFILFKDGQAQYEVNNWDITPEALGPVFEQQVPQRSGAAQVDAGDSVEPYRQLMQAYLAGQLSDWAFQDQYVTMFRDDASLRSQREFELLSRLFGDPDAYHGGLHQLGAPQDRGDLKARVQSVLDQLG", "notes": "AbxC (DR_1832), Deinococcus radiodurans R1; monomer 23.7 kDa; single cysteine Cys36; also called putative homolog of BrxC (YtxJ); source: E. coli BL21-CodonPlus (DE3)-RP, purified (Ni-NTA, Superdex 75HR)"}}, "target": "the molecule itself", "experiment": "non-reducing SDS-PAGE; purified AbxC 0.5 mg/mL in PBS, 15 min, without or with increasing concentrations of H2O2 (or oxidised with diamide); 12% gel, non-reducing; disulfide-linked dimer against monomer", "data": [{"protein": "B1", "values": [{"measurement": "stoichiometry N", "result": 2}]}]}
